Results reported in patent publication US20180273623A1.

Molecular target: EGFR (human) (UniProt P00533)
Test: flow cytometry on HCC-1954 cells, upper panel; staining antibody not named on the sheet or in the legend, assigned by analogy with FIG. 28A and 28C; open histogram shifted from the hatched control

EGFR 528 (phb 704) (antibody)
MFI: 262
